Data reported in IntAct's records for PubMed 17213653.

B1: Protein RCR1 (Saccharomyces cerevisiae), P38212 (parent)
chain: MGLISYENEAINEVKKADNHHVSKFVTSYYGPSSSSWQSGIWILFVLFVAAVILIILFTFVANRRRRRMGRAPIRGTAWLTPPSYRQSQQQYTGTVQQRTDDYVPEYTETANEHDLGYYDQRGEFHPNDKAAYVAPPPLVQECSSESVNSLERPPAAVVHQANSLDTDYGLTRPSNGRVPAVSDTVEQLERLPGGTTTQEINPPERAKVNARS
partner: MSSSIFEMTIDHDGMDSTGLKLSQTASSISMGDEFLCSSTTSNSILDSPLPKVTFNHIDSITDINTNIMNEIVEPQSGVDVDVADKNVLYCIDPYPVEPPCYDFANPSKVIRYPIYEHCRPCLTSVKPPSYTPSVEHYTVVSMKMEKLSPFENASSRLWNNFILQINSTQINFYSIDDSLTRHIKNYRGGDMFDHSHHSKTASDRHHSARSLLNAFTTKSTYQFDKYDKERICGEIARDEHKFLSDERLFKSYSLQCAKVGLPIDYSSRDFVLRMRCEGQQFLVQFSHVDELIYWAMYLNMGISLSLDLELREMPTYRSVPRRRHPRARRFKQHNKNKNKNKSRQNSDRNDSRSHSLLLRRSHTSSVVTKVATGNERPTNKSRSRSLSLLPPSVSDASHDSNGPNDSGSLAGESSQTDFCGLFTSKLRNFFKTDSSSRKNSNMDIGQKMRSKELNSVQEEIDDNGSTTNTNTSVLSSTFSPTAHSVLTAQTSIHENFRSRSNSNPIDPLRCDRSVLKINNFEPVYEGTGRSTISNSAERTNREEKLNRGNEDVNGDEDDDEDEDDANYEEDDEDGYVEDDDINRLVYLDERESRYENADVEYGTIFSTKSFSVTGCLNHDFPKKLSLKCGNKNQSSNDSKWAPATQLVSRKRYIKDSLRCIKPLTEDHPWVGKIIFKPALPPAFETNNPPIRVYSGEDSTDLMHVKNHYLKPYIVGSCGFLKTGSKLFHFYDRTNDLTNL
B2: Protein RCR1 (Saccharomyces cerevisiae), P38212 (parent)
chain: B1 chain

Variants of: B1
Conditions: with yno4_yeast yno4, P53907
With MGLISYENEAINEVKKADNHHVSKFVTSYYGPSSSSWQSGIWILFVLFVAAVILIILFTFVANRRRRRMGRAPIRGTAWLTQASYRQSQQQYTGTVQQRTDDYVPEYTETANEHDLGYYDQRGEFHPNDKAAYVAPPPLVQECSSESVNSLERPPAAVVHQANSLDTDYGLTRPSNGRVPAVSDTVEQLERLPGGTTTQEINPPERAKVNARS [P82Q;P83A] the “effect of a mutation on the interaction” value was “disrupting interaction”.

Variants of: B2
Conditions: with rsp5_yeast RSP5, P39940
rsp5_yeast RSP5, P39940, sequence (P39940 whole entry): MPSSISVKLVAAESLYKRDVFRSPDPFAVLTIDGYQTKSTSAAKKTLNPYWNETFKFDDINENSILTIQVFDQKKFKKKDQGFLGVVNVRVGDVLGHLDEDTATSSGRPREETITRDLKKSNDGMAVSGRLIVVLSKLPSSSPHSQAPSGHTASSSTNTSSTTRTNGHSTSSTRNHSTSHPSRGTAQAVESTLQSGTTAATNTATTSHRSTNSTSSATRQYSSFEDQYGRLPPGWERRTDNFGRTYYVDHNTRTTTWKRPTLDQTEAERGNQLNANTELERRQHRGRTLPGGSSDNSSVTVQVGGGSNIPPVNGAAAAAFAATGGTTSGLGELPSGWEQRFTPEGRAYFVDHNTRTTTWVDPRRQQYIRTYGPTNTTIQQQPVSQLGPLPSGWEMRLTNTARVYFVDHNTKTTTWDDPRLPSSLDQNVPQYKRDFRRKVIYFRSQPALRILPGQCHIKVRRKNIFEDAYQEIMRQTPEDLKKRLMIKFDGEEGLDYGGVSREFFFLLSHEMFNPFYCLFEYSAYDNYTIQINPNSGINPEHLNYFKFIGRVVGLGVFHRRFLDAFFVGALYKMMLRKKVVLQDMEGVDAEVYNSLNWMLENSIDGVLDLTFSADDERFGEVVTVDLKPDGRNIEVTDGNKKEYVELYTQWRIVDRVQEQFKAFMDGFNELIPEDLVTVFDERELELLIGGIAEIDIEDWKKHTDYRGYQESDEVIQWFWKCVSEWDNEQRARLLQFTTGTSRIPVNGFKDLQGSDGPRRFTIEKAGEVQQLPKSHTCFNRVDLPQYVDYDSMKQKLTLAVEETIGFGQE
With MGLISYENEAINEVKKADNHHVSKFVTSYYGPSSSSWQSGIWILFVLFVAAVILIILFTFVANRRRRRMGRAPIRGTAWLTQASYRQSQQQYTGTVQQRTDDYVAEYTETANEHDLGYYDQRGEFHPNDKAAYVAPPPLVQECSSESVNSLERPPAAVVHQANSLDTDYGLTRPSNGRVPAVSDTVEQLERLPGGTTTQEINPPERAKVNARS [P82Q;P83A;P105A] the “effect of a mutation on the interaction” value was “disrupting interaction”. With MGLISYENEAINEVKKADNHHVSKFVTSYYGPSSSSWQSGIWILFVLFVAAVILIILFTFVANRRRRRMGRAPIRGTAWLTPPSYRQSQQQYTGTVQQRTDDYVAEYTETANEHDLGYYDQRGEFHPNDKAAYVAPPPLVQECSSESVNSLERPPAAVVHQANSLDTDYGLTRPSNGRVPAVSDTVEQLERLPGGTTTQEINPPERAKVNARS [P105A] the “effect of a mutation on the interaction” value was “decreasing interaction”.

Variants of: B2
Conditions: with rsp5_yeast RSP5, P39940
Remark: another data set of the same source
With MGLISYENEAINEVKKADNHHVSKFVTSYYGPSSSSWQSGIWILFVLFVAAVILIILFTFVANRRRRRMGRAPIRGTAWLTQASYRQSQQQYTGTVQQRTDDYVPEYTETANEHDLGYYDQRGEFHPNDKAAYVAPPPLVQECSSESVNSLERPPAAVVHQANSLDTDYGLTRPSNGRVPAVSDTVEQLERLPGGTTTQEINPPERAKVNARS [P82Q;P83A] the “effect of a mutation on the interaction” value was “decreasing interaction”. For MGLISYENEAINEVKKADNHHVSKFVTSYYGPSSSSWQSGIWILFVLFVAAVILIILFTFVANRRRRRMGRAPIRGTAWLTPPSYRQSQQQYTGTVQQRTDDYVAEYTETANEHDLGYYDQRGEFHPNDKAAYVAPPPLVQECSSESVNSLERPPAAVVHQANSLDTDYGLTRPSNGRVPAVSDTVEQLERLPGGTTTQEINPPERAKVNARS [P105A], the “effect of a mutation on the interaction” value was “disrupting interaction”.
